The source of these data is patent US20200377609A1.

B1: Clone 63-1 (antibody, V domains shown)
VH: QEQLEESGGDLVKPGASLTLTCTASGFSFSSGYWICWVRQAPGKGLEWIACIYTRSGGSTHYASWAKGRFTTSKTSSTTVTLQMTSLTAADMATYFCARDPYVLSAGPDNVLWGPGTLVTVSS
VL: ALVMTQTPSPVSAAVGGTVTINCQASESIGSDLGWYQQKPGQPPKFLIYWASTLVSGVPSRFEGSGSGTQFTLTISDLECDDAATYYCAGYESLSNDGNAFGGGTEVVVK
B2: Clone 154-7 (antibody, V domains shown)
VH: QSLEESGGDLVKPEGSLTLTCTASGFSFSSSYWICWVRQAPGKGLEWIACIYTANSGRTVYASWAKGRFTISKTSSTTVTLQLPSLTAADTATYFCARDIYVLTTTDNLWGPGTLVTVSS
VL: ALVMTQAPSPVSAAVGGTVTISCQASQPIGSDLVWYQQKPGQPPKLLIYYASDLASGVPSRFKGSGSGTRFTLTISGVECDDAATYYCAGYKNYDHDDCGFGGGTEVVVK
B3: Clone 9-1 (antibody, V domains shown)
VH: QQQLEESGGGLVKPGGTLTLTCTASGFSFSSGQWMCWVRQAPGKGLELIACIYTSAGGSTHYASWATGRFTISKTSSTTVTLQMTSLTAADTATYFCARDPYLLSAGPDNNLWGPGTLVAVSS
VL: ALVMTQTPSPVSAAVGGTVTINCQASQSIGSDFTWWQQKPGQPPKLLIYWASTLASGVSSRFKGSGSGTQFTLTISDLECDDAATYYCAGYVSYSDDGNAFGGGTEVVVK
B4: Clone 9-9 (antibody, V domains shown)
VH: B3 VH with W34R
VL: B3 VL
B5: Clone 80-7 (antibody, V domains shown)
VH: B1 VH with G15E, A16G, G32A, A41V, R55G, S59R, T60S, T72I, M92T, V103I
VL: B1 VL with E27Q, Y36F, F46L, V55A
B6: Clone 137-2 (antibody, V domains shown)
VH: QEQLVESGGGLVQPEGSLTLTCTASGFSFSLSNWICWVRQAPGKGLEWVACIYVSVSGNTRYASWAKGRFTISETSSTTVTLQMTGLTAADTATYFCARDPFSLVSVDRSLWGPGTLVTVSS
VL: ALVMTQTPSPVSAAVGGTVTINCQASQSIGSDLSWFQQKPGQPPKLLMYWASSLASGVPSRFKGSGSGTQFTLTISDLECDDAATYYCAGYVNYNNDDAAFGGGTEVVVK
B7: Clone 18-4 (antibody, V domains shown)
VH: QERLVESGGGLVQPEGSLTLTCTASGLTLSNYWLCWVRQAPGKGLEWIACIYTGNYGSAYYANWVKGRFTISKASSTTVTLQMTSLTAADTATYFCARDPYTLTNVDVLWGPGTLVTVSS
VL: ALVMTQTPSPVSAAVGGTVTINCQASQSIGSDLAWYQQRPGQPPKLLIYWASTLASGVPSRFSGSGSGTQFTLTISDLECDDAATYYCTGYISYNDDNAAFGGGTEVVVK
B8: Clone 89-10 (antibody, V domains shown)
V domain 1: QEQLVESRGGLVKPGGSLTLTCKASGFSFSTGYYACWVRQAPGKGLELSACVDTGSGDTFYASWARGRFTISKTSSSTVTLQMTSLTVADTATYFCARTALVMTDFYFNLWGPGTLTTVSS
V domain 2: ALVMTQTPASVEAAVGGTVTINCQASQWISNELSWYQQKPGQPPKLLIYLASTLASGVPSRFKGSGSGTEFTLTISDLECADAATYYCQQGYNIGHLDNAFGGGTEVVVK
B9: Clone 77-9 (antibody, V domains shown)
VH: QSLEESGGALVKPGASLALTCTASGFSFNLRHYMCWVRQAPGKGLEWIGCVHGGSSGGTYYASWTKGRFTISKTSSTTVTLQMTSLTAADTATYFCAREDDIMMAGEFSLWGPGTLVTVSS
VL: DIVMTQTPSSVEASVGGTVTIKCQASEDIESYLVWYQQKPGQPPKLLIYQASNLASGVPSRFYGSGSGTQFTLTISDLECADASTYYCQSYVEGGVDVVFGGGTEVVVK
B10: Clone 83-3 (antibody, V domains shown)
VH: B9 VH with A9D, A18T, G57S, T65A, A97T, S109G
VL: B9 VL with E12S, A13E, S14P, Y63S, Q70E, F71Y, S84A, V92I

Substitutions are numbered along the chain they refer to.

One assay has as its target CAR-2. Nature of the assay: flow cytometry; clonal supernatant on control CAR-2 T cells, FITC goat anti-rabbit F(ab')2 detection. In general terms: Flow cytometry measures light scatter and fluorescence of single cells or particles in a stream.
B1: the CAR+ (gate frequency) was found to be 0.1.
Still for that read-out and setting: the figure for B2 is 0.067; for B3 it is 0.18; for B4 it is 0.067.
In turn, B5 came in with a CAR+ (gate frequency) of 0.22.
On the same count and under the same terms, as for B6, the figure is 0.11; as for B7, 0.09.

The target in another assay is BCMA-AM2. Nature of the assay: flow cytometry; supernatant on CAR-transduced Jurkat cells (BCMA-AM2), FITC goat anti-rabbit F(ab')2 detection.
B8 returned an FITC+ (gate frequency) of 0.042.
Still for that read-out and setting: the figure for B9 is 91.6; for B10 it is 90.2.

Another assay concerns the target BCMA-AM1. Nature of the assay: flow cytometry; supernatant on CAR-transduced Jurkat cells (BCMA-AM1), FITC goat anti-rabbit F(ab')2 detection.
In the case of B8, the FITC+ (gate frequency) was 82.7.
B9 showed an FITC+ (gate frequency) of 82.4.
B10 registered an FITC+ (gate frequency) of 83.4.

For another assay, the target named is CAR-3. The assay can be described thus: flow cytometry; clonal supernatant on control CAR-3 T cells, FITC goat anti-rabbit F(ab')2 detection.
Regarding B1, the CAR+ (gate frequency) is 0.14.
B2 registered a CAR+ (gate frequency) of 0.15.
Same read-out and setting: the figure for B3 is 0.11.
With B4, the CAR+ (gate frequency) is 0.13.
The same measure, in the same setting: the figure for B5 is 0.067.
The same measure, in the same setting: the figure for B6 is 0.093; for B7 it is 1.81.

The target of another assay is BCMA-AM1. Nature of the assay: flow cytometry; supernatant on CAR-transduced Jurkat cells (panel BCMA-AM1), FITC goat anti-rabbit F(ab')2 detection.
The molecule B3 came in with an FITC+ (gate frequency) of 0.14.

A further assay has as its target BCMA-AM2. The assay can be described thus: flow cytometry; supernatant on CAR-transduced Jurkat cells (panel BCMA-AM2), FITC goat anti-rabbit F(ab')2 detection.
B3 came in with an FITC+ (gate frequency) of 95.3.

Another assay has as its target anti-BCMA CAR. The assay can be described thus: flow cytometry; clonal supernatant on anti-BCMA CAR T cells, FITC goat anti-rabbit F(ab')2 detection.
Take B1: the CAR+ (gate frequency) was determined as 58.2.
Still for that read-out and setting: the figure for B2 is 47.1; for B3 it is 60.9; for B4 it is 51.8.
Molecule B5 displayed a CAR+ (gate frequency) of 31.5.
Still for that read-out and setting: as for B6, the figure is 42.4; as for B7, 41.7.

In another assay the target is anti-BCMA CAR. The assay can be described thus: flow cytometry; supernatant on CAR-transduced Jurkat cells (panel BCMA WT), FITC goat anti-rabbit F(ab')2 detection.
With B3, the FITC+ (gate frequency) stood at 75.2.
